The source of these data is US20260297187 (published 2026).

T1: CEACAM1-his (human)
T1 chain: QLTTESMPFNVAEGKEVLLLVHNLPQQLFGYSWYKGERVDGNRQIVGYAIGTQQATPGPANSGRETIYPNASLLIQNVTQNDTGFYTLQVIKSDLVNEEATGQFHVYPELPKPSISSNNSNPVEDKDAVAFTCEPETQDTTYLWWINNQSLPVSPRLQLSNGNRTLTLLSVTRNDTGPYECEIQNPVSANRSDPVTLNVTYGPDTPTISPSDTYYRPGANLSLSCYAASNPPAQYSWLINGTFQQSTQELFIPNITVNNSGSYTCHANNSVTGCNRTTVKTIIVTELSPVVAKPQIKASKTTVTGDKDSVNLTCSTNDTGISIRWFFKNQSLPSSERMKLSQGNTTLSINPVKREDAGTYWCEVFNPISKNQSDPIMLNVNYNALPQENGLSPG

B1: h4D10.G4.H0bL1 (antibody, V domains shown)
VH: QVQLVQSGAEVKKPGASVKVSCKASGYTFSSYVIHWVRQAPGQGLEWMGYFNPYNNGTNYNENFKGRVTMTRDTSTSTVYMELSSLRSEDTAVYYCARYYYASGSLYFDYWGQGTTVTVSS
VL: DIQLTQSPSFLSASVGDRVTITCSASSSVSYMHWYQQKPGKAPKPLIYEISKLASGVPSRFSGSGSGTEFTLTISSLQPEDAATYYCQQWNYPLITFGGGTKVEIK
B2: h4D10.G4.H3L2 (antibody, V domains shown)
VH: B1 VH with R72A, T76I, V79A, S85R, E89D, T116L
VL: B1 VL with L4M, F10T, E80D
B3: h4D10.G4.H4L1 (antibody, V domains shown)
VH: B1 VH with R72A
VL: B1 VL
B4: h4D10.G4.H3L1 (antibody, V domains shown)
VH: B1 VH with R72A, T76I, V79A, S85R, E89D, T116L
VL: B1 VL
B5: h4D10.G4.H0bL2 (antibody, V domains shown)
VH: B1 VH
VL: B1 VL with L4M, F10T, E80D
B6: h2C10.G4.H0aL0a (antibody, V domains shown)
VH: QVQLVQSGAEVKKPGASVKVSCKASGFAFTNYLIEWVRQAPGQGLEWMGVLNPGSGATNYNEKFKGRVTMTRDTSISTAYMELSRLRSDDTAVYYCARGIYGGYFAMDYWGQGTLVTVSS
VL: DIQMTQSPSSLSASVGDRVTITCRASQDITTYLNWYQQKPGKAPKLLIYYTSRLHSGVPSRFSGSGSGTDFTFTISSLQPEDIATYYCQQGNTLPRTFGQGTKVEIK
B7: h2C10.G4.H3L1 (antibody, V domains shown)
VH: B6 VH with R72A
VL: B6 VL with F73L
B8: h2C10.G4.H0aL3 (antibody, V domains shown)
VH: B6 VH
VL: B6 VL with K42G, F71Y, F73L, Q100G, V104L
B9: h2C10.G4.H3L3 (antibody, V domains shown)
VH: B6 VH with R72A
VL: B6 VL with K42G, F71Y, F73L, Q100G, V104L
B10: h2C10.G4.H3L4 (antibody, V domains shown)
VH: B6 VH with R72A
VL: B6 VL with K42G, F73L, Q100G, V104L
B11: h2C10.G4.H3L2 (antibody, V domains shown)
VH: B6 VH with R72A
VL: B6 VL with P8T, K42G, F71Y, F73L, Q100G, V104L
B12: h2C10.G4.H0aL0b (antibody, V domains shown)
VH: B6 VH
VL: B6 VL with F73L, I83F
B13: h2C10.G4.H0aL1 (antibody, V domains shown)
VH: B6 VH
VL: B6 VL with F73L
B14: P23B6 (antibody, V domains shown)
VH: QVQLLQPGAEPVKPGTSVKLSCKASGYNFTSYWLNWVKLRPGQGLEWIGDIHPGRGSINYNEKFKSKAILTVDTSSRTAYIQLSSLASEDSALYYCARADGSWFVYWGQGTLVTVSA
VL: DIVLTQSPASLAVSLGQRATISCRASQSVSTSSYSYMHWYQQKPGQPPKLLIKYASNLESGVPARFSGSGSGTDFTLNIHPVEEEDTATYYCQHSWEIPWTFGGGTKLEIK
B15: 2G12 (antibody, V domains shown)
VH: QIQLVQSGPELKKPGETVKISCKASGYSFTHHGMNWVKQAPGKDLKWMGWINTYTGEPTYADDFRGRFAFSLETSASTAYLQINNLKSEDTATYFCARKDYYISGNFDYWGQGTTLTVSS
VL: DIQMTQSPSSLSASLGERVSLTCRASQDIGSNLNWLQQEPDGTIKRLIYATSSLDSGVPKRFSGSRSGSDYSLTISSLESEDFVDYYCLQYASSPYTFGGGTKLEIK
B16: 5D5.G4 (antibody, V domains shown)
VH: B15 VH with S28T, F29L, H31N, H32Y, K43T, R65K, S88N, I103V
VL: B15 VL
B17: 4H11 (antibody, V domains shown)
VH: QIQLVQSGPELKKPGETVKISCKASGYTLTDYGMNWVSQAPGKGLKWVGWINTYTGEPTYADDFKGRFAFSLDTSASTAYLQINNLKNEDTATYFCARKNIYGYFDVWGAGTTVTVSS
VL: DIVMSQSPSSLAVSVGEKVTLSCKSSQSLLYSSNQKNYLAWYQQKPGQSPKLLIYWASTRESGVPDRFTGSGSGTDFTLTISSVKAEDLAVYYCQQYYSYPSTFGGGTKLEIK
B18: h4D10.G4.H4(N56Q Y100V)L2 (antibody, V domains shown)
VH: B1 VH with N56Q, R72A, Y100V
VL: B1 VL with L4M, F10T, E80D
B19: h4D10.G4.H4(N56I Y100F)L2 (antibody, V domains shown)
VH: B1 VH with N56I, R72A, Y100F
VL: B1 VL with L4M, F10T, E80D
B20: h4D10.G4.H4(N56W Y100V)L2 (antibody, V domains shown)
VH: B1 VH with N56W, R72A, Y100V
VL: B1 VL with L4M, F10T, E80D
B21: h4D10.G4.H4(N56W Y100W)L2 (antibody, V domains shown)
VH: B1 VH with N56W, R72A, Y100W
VL: B1 VL with L4M, F10T, E80D
B22: h4D10.G4.H4(N56I Y100V)L2 (antibody, V domains shown)
VH: B1 VH with N56I, R72A, Y100V
VL: B1 VL with L4M, F10T, E80D
B23: h4D10.G4.H4(N56V Y100F)L2 (antibody, V domains shown)
VH: B1 VH with N56V, R72A, Y100F
VL: B1 VL with L4M, F10T, E80D
B24: h4D10.G4.H4(N56W Y100F)L2 (antibody, V domains shown)
VH: B1 VH with N56W, R72A, Y100F
VL: B1 VL with L4M, F10T, E80D
B25: h4D10.G4.H4(N56I Y100W)L2 (antibody, V domains shown)
VH: B1 VH with N56I, R72A, Y100W
VL: B1 VL with L4M, F10T, E80D
B26: h4D10.G4.H4(N56V Y100W)L2 (antibody, V domains shown)
VH: B1 VH with N56V, R72A, Y100W
VL: B1 VL with L4M, F10T, E80D
B27: h4D10.G4.H4(N56V Y100V)L2 (antibody, V domains shown)
VH: B1 VH with N56V, R72A, Y100V
VL: B1 VL with L4M, F10T, E80D
B28: h4D10.G4.H4(N56Q Y100W)L2 (antibody, V domains shown)
VH: B1 VH with N56Q, R72A, Y100W
VL: B1 VL with L4M, F10T, E80D

Numbering of substitutions follows the chain as printed. Names may count otherwise.

The target in one test is T1, CEACAM1-his. The experiment in a line: BLI. Background: In BLI a coated tip is dipped into the sample, and binding shifts an interference pattern.
A word on the Kd: it is a measure of binding affinity in units of concentration. B1 displayed a dissociation constant Kd of 2.16 nM. Same read-out and setting: under B2 stands 1.77 nM; under B3, 1.53 nM. On the same count and under the same terms, the result for B4 reads 1.46 nM; that for B5, 2.28 nM; that for B6, 2.15 nM.

Molecule B7 registered a Kd of 2.18 nM. Still for that read-out and setting: under B8 stands 0.944 nM; under B9, 1.13 nM; under B10, 2 nM. Still for that read-out and setting: the result for B11 reads 0.927 nM; that for B12, 2.23 nM. Same read-out and setting: the result for B13 reads 1.81 nM.

A further test deals with T1, CEACAM1-his. As to the kind of experiment: BLI. This is another data set of the same source.
Molecule B14 showed a dissociation constant Kd of 6.31 nM. In other words, the single-digit nanomolar range. The same measure, in the same setting: under B15 stands 2.19 nM. The same measure, in the same setting: the result for B16 reads 2.11 nM; that for B17, 3.51 nM.

The target in the next test is T1, CEACAM1-his. As to the kind of experiment: BLI. This is another data set of the same source.
B18 came in with a dissociation constant (Kd) of 5.86 nM.

As for B19, the dissociation constant Kd came to 3.14 nM.

With B20, the Kd is 4.97 nM. Same read-out and setting: the result for B21 reads 3.39 nM; that for B22, 6.22 nM.

B23 gave a dissociation constant (Kd) of 2.75 nM.

B24 had a dissociation constant Kd of 1.13 nM.

The molecule B25 returned a dissociation constant (Kd) of 5.41 nM.

B26: the affinity, expressed as Kd, was 4.87 nM. The Kd values of the last two molecules are within 1.5-fold of each other.

The molecule B27 displayed a Kd of 4.67 nM.

Regarding B28, the equilibrium dissociation constant (Kd) came out at 3.65 nM.
